Assay results from the supplement of paper PMC7125110.
± gives the standard error. Variants at the floor of the assay were thinned out.

B1: glmS ribozyme (parent)
chain: AUAAAAGCGCCAGAACUACAGAAAUGUAGUUGACGAGGAGGAGGUUUAUCGAAUUUUCGGCGGAUGCCUCCAAA

How the values were obtained:
Conditions in all cases: with glucosamine-6-phosphate
[1] = variants of: B1; assay: self-cleavage kobs at 640 uM GlcN6P; higher = faster cleavage; RNA array
Method in brief: (§1)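 kcat and KM were obtained from weighted Michaelis–Menten fits across concentrations of kobs values. Those came from one- or two-exponential decay fits to per-tile medians normalised to baseline and to non-cleaving reference variants. The variants were barcoded ribozymes transcribed in situ by E. coli RNA polymerase on sequenced MiSeq chips and tracked through a hybridised Cy3 probe at 37 °C, with 40 μM to 10 mM glucosamine-6-phosphate in HEPES/KCl/Mg(OAc)2 buffer flowed in.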

[2] = variants of: B1; assay: self-cleavage kobs at 2500 uM GlcN6P; higher = faster cleavage; RNA array
Method in brief: as §1

[3] = variants of: B1; assay: self-cleavage kobs at 10000 uM GlcN6P; higher = faster cleavage; RNA array
Method in brief: as §1

| Variant | self-cleavage kobs at 640 uM GlcN6P [1] | self-cleavage kobs at 2500 uM GlcN6P [2] | self-cleavage kobs at 10000 uM GlcN6P [3] |
| --- | --- | --- | --- |
| G13U A15G A52C | < 1e-05 s⁻¹ | < 1e-05 s⁻¹ |  |
| A12G G29A U30A U45G G62A C71U | < 1e-05 s⁻¹ | < 1e-05 s⁻¹ |  |
| A12C G29C U30G | 0.000163 ± 2.9e-05 s⁻¹ | 0.000329 ± 8.6e-05 s⁻¹ |  |
| C11A G13C U57G | < 1e-05 s⁻¹ |  |  |
| A12C G35C G44A C50U | < 1e-05 s⁻¹ | < 1e-05 s⁻¹ |  |
| A12U C16U A33C | 0.000251 ± 4.5e-05 s⁻¹ | 0.000381 ± 7.2e-05 s⁻¹ |  |
| C11A G38A G43U U54G | < 1e-05 s⁻¹ |  |  |
| C11A G59U C70G C71U | 0.000202 ± 5.2e-05 s⁻¹ | 0.00032 ± 6.5e-05 s⁻¹ | 0.00015 ± 4.4e-05 s⁻¹ |
| C11U G29C U31A C34A A52C G60U | < 1e-05 s⁻¹ | < 1e-05 s⁻¹ |  |
| G13A U31G A33U | < 1e-05 s⁻¹ | < 1e-05 s⁻¹ |  |
| A12C A42U C68U | 5.31e-05 ± 1.5e-05 s⁻¹ | 0.000111 ± 2.6e-05 s⁻¹ |  |
| G13C U30A G41U G63A A64C | < 1e-05 s⁻¹ | < 1e-05 s⁻¹ |  |
| C10A A36U C68A | 0.000222 ± 9e-05 s⁻¹ |  |  |
| G13U G62C | < 1e-05 s⁻¹ | < 1e-05 s⁻¹ |  |
| C11A C61U | < 1e-05 s⁻¹ | < 1e-05 s⁻¹ | < 1e-05 s⁻¹ |
| C11A A33G G51A C71U | < 1e-05 s⁻¹ |  |  |
| A14C C34A U46A | < 1e-05 s⁻¹ |  |  |
| A12G A14U C16G U46A A53U | < 1e-05 s⁻¹ |  |  |
| A12U A42G C68U | 0.00273 ± 0.00096 s⁻¹ |  |  |
| C10U G29A C34G C50A G63A G66C | < 1e-05 s⁻¹ |  |  |
| C11G G38A G43C | < 1e-05 s⁻¹ | < 1e-05 s⁻¹ |  |
| C11G G13U G29A G66A | < 1e-05 s⁻¹ |  |  |

| Variant | self-cleavage kobs at 640 uM GlcN6P [1] | self-cleavage kobs at 2500 uM GlcN6P [2] | self-cleavage kobs at 10000 uM GlcN6P [3] |
| --- | --- | --- | --- |
| G13U C16U G37U U47G U57A C58U G60U | < 1e-05 s⁻¹ |  |  |
| A12U A48U C68A C70G | < 1e-05 s⁻¹ |  |  |
| C11A G32U A39C U54A C67G C68G | 0.00137 ± 0.00067 s⁻¹ |  |  |
| C11G G59C C67G | 0.000111 ± 4e-05 s⁻¹ | 0.00023 ± 6.2e-05 s⁻¹ |  |
| G13U A14G A42C | < 1e-05 s⁻¹ | < 1e-05 s⁻¹ |  |
| C11G A33U U54A U65G | < 1e-05 s⁻¹ |  |  |
| G13C G40U G60U | < 1e-05 s⁻¹ |  | < 1e-05 s⁻¹ |
| A14C U56G C67G | 0.000636 ± 0.00024 s⁻¹ | 0.00165 ± 0.00073 s⁻¹ | 0.0219 ± 0.0084 s⁻¹ |
| C10U U31A G40U U49C C58U G59U C70G | < 1e-05 s⁻¹ |  |  |
| C10A G38U A39G | < 1e-05 s⁻¹ | < 1e-05 s⁻¹ |  |
| A14C C50A C61A | 4.16e-05 ± 1.7e-05 s⁻¹ |  |  |
| A12C G29A C58G U65G C68G | 0.000168 ± 6e-05 s⁻¹ | 8.36e-05 ± 2.2e-05 s⁻¹ |  |
| C11A G51U A53G A64C U69A | 8.76e-05 ± 3.9e-05 s⁻¹ |  | 5.47e-05 ± 1.5e-05 s⁻¹ |
| C11A A52G A64C | < 1e-05 s⁻¹ | < 1e-05 s⁻¹ |  |
| C11U A15C G29C G32U C50G | 0.000512 ± 0.00014 s⁻¹ | 0.000149 ± 3.9e-05 s⁻¹ |  |
| A14C G38U G44A G63U C67U | < 1e-05 s⁻¹ |  |  |
| C11A A12C A53G U56G | 6.8e-05 ± 1.5e-05 s⁻¹ | 0.000323 ± 6.9e-05 s⁻¹ |  |
| C10A A15C U45C | < 1e-05 s⁻¹ |  |  |
| C10A G44A U47C | < 1e-05 s⁻¹ |  |  |
| A14G A33U G35C | < 1e-05 s⁻¹ |  |  |
| C11G A39C C67G | < 1e-05 s⁻¹ | < 1e-05 s⁻¹ |  |
| C10A A12U G29A A39G A52G C67G | 0.000283 ± 8.4e-05 s⁻¹ | 0.000236 ± 7.4e-05 s⁻¹ |  |

| Variant | self-cleavage kobs at 640 uM GlcN6P [1] | self-cleavage kobs at 2500 uM GlcN6P [2] | self-cleavage kobs at 10000 uM GlcN6P [3] |
| --- | --- | --- | --- |
| C10G A33G | < 1e-05 s⁻¹ |  | < 1e-05 s⁻¹ |
| G13U G40A | 5.97e-05 ± 1.3e-05 s⁻¹ | 6e-05 ± 1.2e-05 s⁻¹ | 0.000183 ± 3.6e-05 s⁻¹ |
| C10U G43A C50A | < 1e-05 s⁻¹ |  |  |
| A12G A48C C68G | < 1e-05 s⁻¹ | < 1e-05 s⁻¹ |  |
| G13C U56A U65A | < 1e-05 s⁻¹ | < 1e-05 s⁻¹ |  |
| C11A A36U U47C | < 1e-05 s⁻¹ | < 1e-05 s⁻¹ |  |
| A12U C67U C71U | 0.000764 ± 0.0002 s⁻¹ | 0.000592 ± 0.00018 s⁻¹ |  |
| A12U A15U C34G U47A | < 1e-05 s⁻¹ |  |  |
| C11A C58U G59U G62U C70U | < 1e-05 s⁻¹ |  |  |
| G13C G38U U56G G63U U69C | < 1e-05 s⁻¹ | < 1e-05 s⁻¹ |  |
| G13U U69C | 7.4e-05 ± 2.2e-05 s⁻¹ | 0.000149 ± 3e-05 s⁻¹ | 0.00027 ± 7.1e-05 s⁻¹ |
| C10G G38A U47C A52C | < 1e-05 s⁻¹ |  |  |
| C10U A36G C58U | < 1e-05 s⁻¹ |  |  |
| A14G A39U G41U G51A G59A | < 1e-05 s⁻¹ |  |  |
| C10U C16U C71G | 6.17e-05 ± 2.9e-05 s⁻¹ |  |  |
| C11A U30G C34U C50G | 0.000134 ± 2.8e-05 s⁻¹ |  |  |
| C10U A33U A36U G43U A53G C71U | < 1e-05 s⁻¹ | < 1e-05 s⁻¹ |  |
| C10U A33G G40U C50G | < 1e-05 s⁻¹ |  |  |
| A12G G40U G41C | < 1e-05 s⁻¹ |  |  |
| C10A G13A C50A C58U C71G | 0.000823 ± 0.00036 s⁻¹ | 7.64e-05 ± 3.6e-05 s⁻¹ |  |
| A12G G21A G43U G59C C70U | < 1e-05 s⁻¹ | < 1e-05 s⁻¹ |  |
